Assay results published in PMC3417369.

Substrate: C[C@H](O)C(=O)O
Assay: cells, lysate or membranes named
Format: biochemical, Staphylococcus aureus
Conditions: 1.4 mM menaquinone, 5 μM FAD, phosphatidylethanolamine vesicles, NBT

B1: Lqo (Mqo2, SACOL2623) (Staphylococcus aureus subsp. aureus COL) (protein)
chain: MAKSNSKDIVLIGAGVLSTTFGSMLKEIEPDWNIHVYERLDRPAIESSNERNNAGTGHAALCELNYTVLQPDGSIDIEKAKVINEEFEISKQFWGHLVKSGSIENPREFINPLPHISYVRGKNNVKFLKDRYEAMKAFPMFDNIEYTEDIEVMKKWIPLMMKGREDNPGIMAASKIDEGTDVNFGELTRKMAKSIEAHPNATVQFNHEVVDFEQLSNGQWEVTVKNRLTGEKFKQVTDYVFIGAGGGAIPLLQKTGIPESKHLGGFPISGQFLACTNPQVIEQHDAKVYGKEPPGTPPMTVPHLDTRYIDGQRTLLFGPFANVGPKFLKNGSNLDLFKSVKTYNITTLLAAAVKNLPLIKYSFDQVIMTKEGCMNHLRTFYPEARNEDWQLYTAGKRVQVIKDTPEHGKGFIQFGTEVVNSQDHTVIALLGESPGASTSVSVALEVLERNFPEYKTEWAPKIKKMIPSYGESLIEDEKLMRKIRKQTSKDLELGYYEN
- Km: 330 µM
